From paper doi:10.1101/2021.05.25.445618

What was measured:
[1] = target: C-terminally myc-tagged ClpP2 (ClpP2-2×myc) (L. monocytogenes EGD-e); assay: affinity purification with mass spectrometry
[2] = target: L. monocytogenes ClpP1 of the co-expressed ClpP1/2 preparation (L. monocytogenes); assay: SEC
[3] = target: L. monocytogenes ClpP1, separately overexpressed and purified (ClpP1_(7)) (L. monocytogenes); assay: SEC + other: intact protein mass spectrometry
[4] = target: L. monocytogenes ClpP2, separately overexpressed and purified (ClpP2_(14)) (L. monocytogenes); assay: SEC + other: intact protein mass spectrometry
[5] = target: L. monocytogenes ClpP1, separately overexpressed and purified (ClpP1_(7)) (L. monocytogenes); assay: SEC
[6] = target: L. monocytogenes ClpP2 of the co-expressed ClpP1/2 preparation (L. monocytogenes); assay: SEC

## ClpP1, endogenous in L. monocytogenes (enzyme)
[1]
  fold enrichment at 42 °C over 20 °C: 6 fold

## L. monocytogenes ClpP1 of the co-expressed ClpP1/2 preparation (enzyme)
[2]
  stoichiometry N: 7

## L. monocytogenes ClpP1, separately overexpressed and purified (ClpP1_(7)) (enzyme)
[3]
  stoichiometry N: 7
[4]
  percent ClpP1 in the tetradecamer peak: 40 to 44%
[5]
  stoichiometry N: 7

## L. monocytogenes ClpP2 of the co-expressed ClpP1/2 preparation (enzyme)
[6]
  stoichiometry N: 14

## L. monocytogenes ClpP2, separately overexpressed and purified (ClpP2_(14)) (enzyme)
[4]
  stoichiometry N: 14
